Reference: the supplement of paper PMC10567573

B1: TRIM43 (parent)
chain: FCDMDKSLLCLLCSNSQEHGAHKH

Variants of: B1
Experiment: protein stability index of a GFP-peptide fusion (GPS, HEK-293T) (PSI 1-6); higher = more stable
Conditions: c terminus: a fixed tail appended
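Note: lentivirally expressed fusions sorted by FACS into six bins by GFP to DsRed ratio, PSI derived from sequencing read proportions per bin multiplied by bin number.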

Variant	protein stability index
FCDMDKSQLCLLCSNSQEHGAHKH	2.82
FCDMDKSNLCLLCSNSQEHGAHKH	2.81
FCDMDKSILCLLCSNSQEHGAHKH	1.96
FCDMDKSFLCLLCSNSQEHGAHKH	2.5
FCDMDKSHLCLLCSNSQEHGAHKH	2.54
FCDMDKSGLCLLCSNSQEHGAHKH	2.3
FCDMDKSKLCLLCSNSQEHGAHKH	2.86
FCDMDKSSLCLLCSNSQEHGAHKH	3.1
FCDMDKSVLCLLCSNSQEHGAHKH	2.72
FCDMDKSELCLLCSNSQEHGAHKH	3.8
FCDMDKSLLCLLCSNSQTHGAHKH	1.68
FCDMDKSLLCLLCSNSQPHGAHKH	1.83
FCDMDKSLLCLLCSNSQCHGAHKH	2.3
FCDMDKSLLCLLCSNSQKHGAHKH	1.86
FCDMDKSLLCLLCSNSQVHGAHKH	2.28
FCDMDKSLLCLLCSNSQYHGAHKH	1.71
FCDMDKSLLCLLCSNSQRHGAHKH	1.86
FCDMDKSLLCLLCSNSQHHGAHKH	1.81
FCDMDKSLLCLLCSNSQWHGAHKH	1.98
FCDMDKSLLCLLCSASQEHGAHKH	1.6
FCDMDKSLLCLLCSHSQEHGAHKH	1.55
FCDMDKSLLCLLCSPSQEHGAHKH	1.34
FCDMDKSLLCLLCSGSQEHGAHKH	1.94
FCDMDKSLLCLLCSLSQEHGAHKH	2.4

Variant	protein stability index
FCDMDKSLLCLLCSCSQEHGAHKH	1.77
FCDMDKSLLCLLCSSSQEHGAHKH	2.07
FCDMDKSLLCLLCSISQEHGAHKH	2.49
FCDMDKSLLCLLCSYSQEHGAHKH	2.09
FCDMDKSLLCLLCSTSQEHGAHKH	1.77
FCDMDKSLLCALCSNSQEHGAHKH	2.21
FCDMDKSLLCILCSNSQEHGAHKH	2.25
FCDMDKSLLCFLCSNSQEHGAHKH	2.04
FCDMDKSLLCHLCSNSQEHGAHKH	2.04
FCDMDKSLLCNLCSNSQEHGAHKH	2.07
FCDMDKSLLCMLCSNSQEHGAHKH	1.86
FCDMDKSLLCKLCSNSQEHGAHKH	2.2
FCDMDKSLLCSLCSNSQEHGAHKH	1.8
FCDMDKSLLCLLCSNSAEHGAHKH	1.85
FCDMDKSLLCLLCSNSREHGAHKH	1.6
FCDMDKSLLCLLCSNSYEHGAHKH	2.19
FCDMDKSLLCLLCSNSVEHGAHKH	1.67
FCDMDKSLLCLLCSNSKEHGAHKH	2.13
FCDMDKSLLCLLCSNSLEHGAHKH	1.63
FCDMDKSLLCLLCSNSSEHGAHKH	1.55
FCDMDKSLLCLCCSNSQEHGAHKH	2.56
FCDMDKSLLCLFCSNSQEHGAHKH	1.47
FCDMDKSLLCLRCSNSQEHGAHKH	1.96
FCDMDKSLLCLSCSNSQEHGAHKH	2.65

Variant	protein stability index
FCDMDKSLLCLHCSNSQEHGAHKH	2.78
FCDMDKSLLCLACSNSQEHGAHKH	1.92
FCDMDKSLLCLPCSNSQEHGAHKH	1.91
FCDMDKSLLCLECSNSQEHGAHKH	2.55
FCDMDKSLLCLLCSNSQEHGAHLH	1.63
FCDMDKSLLCLLCSNSQEHGAHGH	1.53
FCDMDKSLLCLLCSNSQEHGAHFH	1.82
FCDMDKSLLCLLCSNSQEHGAHWH	1.94
FCDMDKSLLCLLCSNSQEHGAHAH	2.06
FCDMDKSLLCLLCSNSQEHGAHVH	2.06
FCDMDKSLLCLLCSNSQEHGAHTH	2.02
FCDMDKSLLCLLCSNSQEHGAHRH	2.18
FTDMDKSLLCLLCSNSQEHGAHKH	1.84
FNDMDKSLLCLLCSNSQEHGAHKH	2.58
FADMDKSLLCLLCSNSQEHGAHKH	1.54
FEDMDKSLLCLLCSNSQEHGAHKH	3.4
FQDMDKSLLCLLCSNSQEHGAHKH	2.43
FLDMDKSLLCLLCSNSQEHGAHKH	2.21
FVDMDKSLLCLLCSNSQEHGAHKH	1.86
FFDMDKSLLCLLCSNSQEHGAHKH	2.23
FDDMDKSLLCLLCSNSQEHGAHKH	3.65
FCDMDKSLLCLLCWNSQEHGAHKH	2.06
FCDMDKSLLCLLCFNSQEHGAHKH	1.45
FCDMDKSLLCLLCVNSQEHGAHKH	1.71

Variant	protein stability index
FCDMDKSLLCLLCQNSQEHGAHKH	2.09
FCDMDKSLLCLLCSNSQEHIAHKH	1.66
FCDMDKSLLCLLCSNSQEHAAHKH	1.89
FCDMDKSLLCLLCSNSQEHHAHKH	1.92
FCDMDKSLLCLLCSNSQEHRAHKH	1.9
FCDMDKSLLCLLCSNSQEHPAHKH	2.27
FCDMDKSLLCLLCSNSQEHDAHKH	2.19
FCDMDKSLLCLLCSNSQEHWAHKH	1.56
FCDMDKSLLCLLCSNSQEHMAHKH	1.47
FCDMDKSLLCLLCSNSQEHCAHKH	2.59
FCDMDKSLLCLLCSNSQEHTAHKH	2.12
FCDMDKSLLSLLCSNSQEHGAHKH	1.59
FCDMDKSLLILLCSNSQEHGAHKH	2.06
FCDMDKSLLFLLCSNSQEHGAHKH	2.58
FCDMDKSLLELLCSNSQEHGAHKH	2.23
FCDMDKSLLQLLCSNSQEHGAHKH	1.86
FCDMDKSLLKLLCSNSQEHGAHKH	2.04
FCDMDKSLLPLLCSNSQEHGAHKH	2.3
FCDMDKSLLWLLCSNSQEHGAHKH	2.57
FCDMDKALLCLLCSNSQEHGAHKH	1.77
FCDMDKTLLCLLCSNSQEHGAHKH	2.04
FCDMDKILLCLLCSNSQEHGAHKH	1.84
